The source of these data is a protein production outcome set (Wang et al. 2014).

This series is described as follows: label from the status in PepcDB records.
On to “MVYDNIKREIIGMLKRMPNKQADWDNDLLPTLKAMFNPKSVSNAKSQLISEGVISQEIVDGKKIITLIKDPYELQAPNVFDEEMFLAYYTDKLKEYFKHKLSTEGPEWDIFDVKEFIMHFPESGDLNDKLIEHPYEVRKSITNVYIEAYEELFNETPNVEFIHIRNPIDCRISLSELSSAHKGKLVEFRAMILQATKLKLRYAKGFYYCPKCGATKTLDLGFWDKPKEVGKSLTCPADGCDCKGLIFDEDLSGKVDFQEIKVQTPLQESIYANKHSTTVFYEFNKPKKAVYSGYVKIVGVPIVKENKNGSVGELYIHAFYIEKDDEDIEEIAKNLNEKDLELINRIAKDKNVIQKLSDYAFREVTGYDMIKRAVLLQLVSSGTNIDMRTSIHILMISDPGVGKSTLMESLIQKFPFVKKVYAVTSSGPGLVGSVVREKAEFGDSWVLKAGVLTEADGGVVCIDEFSRNKEVYDYLLGVMEQQKIEINKAGVIDAVLPARVAILAACNPRFGRFNPDLTVWEQINLPKELLDRFDLIFVIKDKIDKKKDEDIADFSIDNYNSKVRERKGKSSGKKFVINGVELNDELLLKYVLYARQIEPEISDEARKIIKEYYVSVRKMSEAKGTFGISARQLGSIIRLAVAHAKLRLSEVVKAVDAEEAIRLVDTCLKQIAYDPESGSIDIDKIAGTPKSKRDKVEKVLNIIKEISNSRDDGLAPEEEIYERAERAGLSEKEVEDAINYLKRVGDIYSPKSGYWQLMS”, for which the protein production result was “failed”.
Consider “MWAYLAILAMAYVTYKTKALDIKGIIAALLLGVIIVTLGGIIPFIALLAFLVMGTLATKFRYREKRKMGLIDESIRSVGNVLGNGLAPLLFVIVEFIIKQDFGWAGVLSSIAVANADTLASEIGKVFGKNPRIITNLKPAKPGEEGAVSFAGEFAALLGAFVISLFGLSLTEYGIQMIVSVTLAGLIGANIDSLIGATFEKNGYFGNNMTNFIATLLGGLLGMALFLLLV”, for which the protein production result was “failed”.
To “MWDALTNWLNLWVGQIEATVFQNVVLPVVYNLGFGGYAEDAFTGTEWLLVGLVQIAVMVLILGPLERLRPVEVVTDRAAIRTDILYTLIHRLGLFRLAMFFLLAPLMDGIEGHLRLLGWQRVNVEDWWPGVTSIPLISFSLYLALFDLLDYWYHRLSHTYRWWWSLHAVHHSQRQMTLWSDNRNHLLDDILRDFVFAAVALAVGVEPSQYVLLVALSQLLQSLQHANLRLHFGWLGERLLISPRFHRTHHAVGLGHEKRATAEKPARLGGCNYGVIFPWWDMLFGTADFTDVYHPTGIRDQMPPPAGRARSYGDGFLSQQWLGIKRLLRLG” belongs “failed”; to “MWRSCLRLRDGGRRLLNRPAGGPSASMSPGPTIPSPARAYAPPTERKRFYQNVSITQGEGGFEINLDHRKLKTPQAKLFTVPSEALAIAVATEWDSQQDTIKYYTMHLTTLCNTSLDNPTQRNKDQLIRAAVKFLDTDTICYRVEEPETLVELQRNEWDPIIEWAEKRYGVEISSSTSIMGPSIPAKTREVLVSHLASYNTWALQGIEFVAAQLKSMVLTLGLIDLRLTVEQAVLLSRLEEEYQIQKWGNIEWAHDYELQELRARTAAGTLFIHLCSESTTVKHKLLKE”, “failed”; to “MWVQTKANEDAAPMSERFTLVLLTHEAKALAQRALRYYSSFACSILVLDSSEKADESLARQFPKVDYRHVPQFSRQDQQGKLTYGVGLVDTPYLAIASDTDFLIADGISAALAFLDAHPDYAVCHGYGLMYSARVLETSYYLRDRKGPEDFAAANGRERIMSFMGHYLSPFNAVTRTDVLRQWYSQLPPAVSTEWLDIGYAFFLLATAKARILPVPFIVREANREALERTARIQALLSSKDAGSLAQHQQFAEFLATLPHNCEGPDAQQMKQLALDSFAALAECLESGRSLKGVMIFRSTWSEVGKDPVRAFGSEQFVEMPFYNQPMFDLLTQIEFLVHAMPAGRLQLNELEGVLLKQEELLRVHSNDTARTLRSRLWEAMALNLFNFTVVKRLAESMRDTDEVEVFRELQEWAARLKALPATDSSALFANTQSGQLFSWLEGRGPKPGQFKSIAHLLGRRAGGPQFQILLLDLDADMIKLQATFDSLMANHCKAFKLVVLTTGDLPAMTTAQDTVHFVKVSQGNYIERLNQLVAQSTAHWVLLMEAGDQLTASGLLRASLELLGAEGIRAVAMDEVQRQADGTLRHVFRPGVNLDLLQSAPNLMARHWLLHREVLLQAGGFNREFARAVELDLVLRLIEDGGLAGLAHLAEPLLICQAAPAGENAEERQVLSRHLANRGYRAQVSSAQPGTYQIDYQHAERPLVSIILPSQDNFAELQRCLVSVLQRTRYQRYEVLIAENHSQNAELDSWLASLERQGERIRVLRSGQRVSTSALHNAACAEAKGEYLLLLSADAEVVNANWIDSLLNQVQRPEIGIVGARLVNERGMTTQAGLILGLNGQLGAAFAGEAKDAPGYMNSLWVEKNYSAVSGVCLMIAKALFEAVGGLDEEHFDQAFADVDLCLKVADAGYLTVLTPQAQVMHPGTLAQDPQALAALKDKWAARFAQDTAYNQNLALTGKGFALGTASRVDWQQLLSN”, “failed”.
The entry for “MWYPLAAMKGVLEALHQGDYDTAIDLLTRKALFGREREAKEAWLLLAEVYALYGEEGLEKAHHALEEAYALGGLEYDPLYRSLLAELLALEGRPEREVLPLFLPSRDPRVRYHQAQALFYLGRLEEALEVLEAGLPPHLAWRAEGLKGRILERLGRHGEAALAYERGAELALGLERYWLLLDAAAMWLEAGEGERALLALKEAEAAVGEEDPEDAATRHYLLARAHLLLGNPGLALEEIRKALALEEESGHKAYGTPLVEGQALLQLGRYEEAMASFREALARADAGERPHVLHEMGVAALDHGAYPEAEEHLRALVREEGYPYLAQAYADLAEALYRQGRYQEAEAAAREAVARGAVAAGELVLGHVAYDLLHLEEALEHYRKAAESAEEGSREWVGAQEMVVDTLAQLGYRFPEEMVRRGQAVLPYLHPADEWHAALTAYVERAQALLREGKRLN” is “failed”.
The entry for “MYAAVEHGPVLCSDSNILCLSWKGRVPKSEKEKPVCRRRYYEEGWLATGNGRGVVGVTFTSSHCRRDRSTPQRINFNLRGHNSEVVLVRWNEPYQKLATCDADGGIFVWIQYEGRWSVELVNDRGAQVSDFTWSHDGTQALISYRDGFVLVGSVSGQRHWSSEINLESQITCGIWTPDDQQVLFGTADGQVIVMDCHGRMLAHVLLHESDGILSMSWNYPIFLVEDSSESDTDSDDYSPPQDGPAAYPIPVQNTKPLLTVSFTSGDISLMNNYDDLSPTVIRSGLKEVVAQWCTQGDLLAVAGMEQQAQLSELPNGPLLKSAMVKFYNVRGEHIFTLDTLVQRPIISICWGHRDSRLLMASGPALYVVRVEHRVSSLQLLCQQAIASTLREDKDVNKLTLPPRLCSYLSTAFIPTIKPPIPDPNNMRDFVSYPSAGNERLHCTMKRTEDDPEVGGPCYTLYLEYLGGLVPILKGRRISKLRPEFVIMDPRTDSKSDEIYGNSLISTVIDSCNCSDSSDIELSDDWAAKKSPKISRSSKSPKLPRISIEARKSPKLPRAAQEISRSPRLPMRKPSMGSPSLTRREFPFEDITQVGSYN” is “failed”; for “MYADEQFKQVFQCIRCAACLNVCPAFQLVGGHVYGHIYTGGIGTILTAFLNSEKDAENPQNLCLQCGKCTEVCAGKLDIPGMILEIRNRIGDQKGLPMTPLEHHHHHH” it is “failed”; for “MYALVDAVSFYASAEKVFDPSIRNKPVVVLTNNDGCICAVCPIARRLGIPKFIPYFQVKSLLEKHGVVVRSSNYELYADLSERMMNVIGRFCDNQYIYSIDESFLYFDHYESCINDWHEYGHKIRKAIWKETRLPVGVGFGETATLSKAANHAAKKLSGFNGVAVINSAVSRDKILKRMAVDEVWGIGRKISKRLGLEGINNAAQLAEQDPKHIRKQFSVVTERTVNELNGISCLSWDEVKSPKKEIFSTRSFGQRITTKNELRSALVTHAAIVGRKVRRQNSLIKKLMIFASNSPHDDLYYKQSMVFPFIIATENTCEMARAVNQVIDSIYKAGIKFYRCGVGAIELNSKTFIQPDLFMPDHTNSNVMKCLDNVNHRYGDSTLKLAAEGHHEKWQMRRAFLSPQYTSQWRDIPKIQC” it is “failed”.
